PMC7728236 (PLoS Pathogens, 2020)

Target: the molecule itself
Experiment: cryo-EM structure

B1: full-length hemagglutinin (HA) of influenza virus A/Hong Kong/1/1968 (H3N2), trypsin-cleaved into HA1/HA2 (natural protein)
chain 1: not shown
chain 2: not shown
notes: copies: 3 + 3
stoichiometry N: 3
